Assays:
Assay type in all cases: biochemical
[1] = GC-FID determination of reaction products of terpene synthases from FPP with magnesium or manganese
[2] = as above; remark: listed apart in the source
Description: Enzyme assays for all recombinant proteins were done in triplicate using the GC vial method described by O'Maille et al. (Anal. Biochem. 335:[…] (2004). For enzyme assays where only product identification was needed, 10 μg of protein was used in a final volume of 500 μL of reaction buffer (25 mM HEPES, 10% glycerol, 5 mM DTT and 10 mM of either Mg^2+ or Mn^2+. Substrates (FPP and GPP) were added to a final reaction concentration of 100 μM. Vials were overlaid with 500 μL of hexane to trap volatile products and incubated at 30° C. for 2 h. Mixtures were vortexed for 1 min to extract all volatiles and the vials were centrifuged to separate the organic layer.
Product mixtures were analysed by GC-MS in scan mode for product identification. A standard containing the three santalenes and α-trans-bergamotene was prepared by flash chromatography of 2 mL of neat S. album oil over silica and eluted in hexane. A final yield of 25 mg was resuspended in EtOAc and purity was confirmed by GC-FID with conditions described below. All mass spectra were compared to the NIST 2005 library and the literature. Retention indices were determined for all compounds using an n-alkane standard and compared to the literature (R. P. Adams, “Identification of essential oil components by gas chromatography/mass spectrometry,” Allured Publishing Corporation, Carol Stream, Ill. (1995)).
(§1) GC-FID was performed on a Shimadzu GC2010 with a 30 m 0.25 mm ID, 0.25 μm film DB-WAX column with He as the carrier gas. Splitless injection (2 μL) was used for all analyses. Conditions were as follows: injector 200° C., detector 250° C., column flow rate 1 mL/min. Oven program: 40° C. for 3 min, then 8° C./min to 180° C., held 5 min, then 10° C./min to 220° C., held 10 min. Needle height was adjusted to only draw from the upper organic layer of all sample vials. GC-MS was performed on a Shimadzu GC2010 with the same DB-WAX column and using He as the carrier gas. Conditions were as follows: injector 200° C., MS interface 240° C., ion source 200° C. Oven program: 40° C. for 3 min, then 8° C./min to 180° C., held 5 min, then 10° C./min to 220° C., held 10 min. Solvent cut time was set to 5 min. For product identification, total ion monitoring was used, scanning from m/z 45 to m/z 300. For kinetic assays, single ion monitoring of the sesquiterpene base ions m/z 91, 93 and 94 were used. Likewise monoterpene base ions (m/z 69, 71 and 93) were monitored. An internal standard (isobutyl benzene, 30 μM) was added to the hexane used to overlay each reaction. Detector response factors were calculated based on the santalene standard prepared earlier and used to determine the product concentrations for kinetic analysis.

[3] = Steady-state enzyme kinetic assays
Description: For determination of steady-state enzyme kinetic constants, conditions were as described previously except the enzyme concentration was kept at 10 nM. Substrate concentrations ranged from 1 uM to 100 uM, and reactions were incubated at 30° C. for exactly 5 mins. Reactions were quenched by the addition of 500 μL 0.5 M EDTA, pH 8.0 and vortexed as above.
as §1

Relative % composition in oil produced by enzyme: epi-β-santalol [1]: 4.8%
Relative % composition in oil produced by enzyme: α-santalol [1]: 51.3%
Relative % composition in oil produced by enzyme: E-α-bergamotol ([2]; GC-FID): 14.5%
Relative % composition in oil produced by enzyme: β-santalol ([2]; GC-FID): 27.4%
B1: SauSSy: santalene synthase from Santalum austrocaledonicum, gene SEQ ID NO:3, protein SEQ ID NO:4 (protein, listed as Santalum austrocaledonicum)
chain: MDSSTATAMTAPFIDPTDHVNLKTDTDASENRRMGNYKPSIWNYDFLQSLATHHNIVEERHLKLAEKLKGQVKFMFGAPMEPLAKLELVDVVQRLGLNHRFETEIKEALFSIYKDESNGWWFGHLHATSLRFRLLRQCGLFIPQDVFKTFQNKTGEFDMKLCDNVKGLLSLYEASYLGWKGENILDEAKAFATKYLKSAWENISEKWLAKRVKHALALPLHWRVPRIEARWFIEAYEQEANMNPTLLKLAKLDFNMVQSIHQKEIGELARWWVTTGLDKLAFARNNLLQSYMWSCAIASDPKFKLARETIVEIGSVLTVVDDAYDVYGSMDELDLYTSSVERWSCVEIDKLPNTLKLIFMSMFNKTNEVGLRVQHERGYNSIPTFIKAWVQQCKSYQKEARWFHGGHTPPLEEYSLNGLVSIGFPLLLITGYVAIAENEAALDKVHPLPDLLHYSSLLSRLINDIGTSPDEMARGDNLKSIHCYMNGTGASEEVAREHIKGVIEENWKILNQCCFDQSQFQEPFITFNLNSVRGSHFFYEFGDGFGVTDSWTKVDMKSVLIDPIPLGEE
modifications: SauSSy Protein
E-β-farnesene among reaction products (GC-FID) ([2]; FPP Mg, mean): 1.4
Z-β-farnesene among reaction products (GC-FID) ([2]; FPP Mg, mean): 0.6
epi-β-santalene among reaction products (GC-FID) ([2]; FPP Mg, mean): 4.8
α-E-bergamotene among reaction products (GC-FID) ([2]; FPP Mg, mean): 14.5
α-santalene among reaction products (GC-FID) ([2]; FPP Mg, mean): 51.3
β-santalene among reaction products (GC-FID) ([2]; FPP Mg, mean): 27.4
E-β-farnesene among reaction products (GC-FID) ([2]; FPP Mg, replicate 1): 1.5
Z-β-farnesene among reaction products (GC-FID) ([2]; FPP Mg, replicate 1): 0.6
epi-β-santalene among reaction products (GC-FID) ([2]; FPP Mg, replicate 1): 4.7
α-E-bergamotene among reaction products (GC-FID) ([2]; FPP Mg, replicate 1): 13.8
α-santalene among reaction products (GC-FID) ([2]; FPP Mg, replicate 1): 51.7
β-santalene among reaction products (GC-FID) ([2]; FPP Mg, replicate 1): 27.8
E-β-farnesene among reaction products (GC-FID) ([2]; FPP Mg, replicate 2): 1.3
Z-β-farnesene among reaction products (GC-FID) ([2]; FPP Mg, replicate 2): 0.6
epi-β-santalene among reaction products (GC-FID) ([2]; FPP Mg, replicate 2): 4.6
α-E-bergamotene among reaction products (GC-FID) ([2]; FPP Mg, replicate 2): 14.6
α-santalene among reaction products (GC-FID) ([2]; FPP Mg, replicate 2): 51.5
β-santalene among reaction products (GC-FID) ([2]; FPP Mg, replicate 2): 27.5
E-β-farnesene among reaction products (GC-FID) ([2]; FPP Mg, replicate 3): 1.5
Z-β-farnesene among reaction products (GC-FID) ([2]; FPP Mg, replicate 3): 0.5
epi-β-santalene among reaction products (GC-FID) ([2]; FPP Mg, replicate 3): 5.1
α-E-bergamotene among reaction products (GC-FID) ([2]; FPP Mg, replicate 3): 15.2
α-santalene among reaction products (GC-FID) ([2]; FPP Mg, replicate 3): 50.7
β-santalene among reaction products (GC-FID) ([2]; FPP Mg, replicate 3): 27.0
E-β-farnesene among reaction products (GC-FID) ([2]; FPP Mn, mean): 8.5
Z-β-farnesene among reaction products (GC-FID) ([2]; FPP Mn, mean): 0.9
epi-β-santalene among reaction products (GC-FID) ([2]; FPP Mn, mean): 1.2
α-E-bergamotene among reaction products (GC-FID) ([2]; FPP Mn, mean): 73.6
α-santalene among reaction products (GC-FID) ([2]; FPP Mn, mean): 10.2
β-santalene among reaction products (GC-FID) ([2]; FPP Mn, mean): 5.3
E-β-farnesene among reaction products (GC-FID) ([2]; FPP Mn, replicate 1): 8.3
Z-β-farnesene among reaction products (GC-FID) ([2]; FPP Mn, replicate 1): 0.9
epi-β-santalene among reaction products (GC-FID) ([2]; FPP Mn, replicate 1): 1.4
α-E-bergamotene among reaction products (GC-FID) ([2]; FPP Mn, replicate 1): 72.5
α-santalene among reaction products (GC-FID) ([2]; FPP Mn, replicate 1): 10.3
β-santalene among reaction products (GC-FID) ([2]; FPP Mn, replicate 1): 5.3
E-β-farnesene among reaction products (GC-FID) ([2]; FPP Mn, replicate 2): 8.5
Z-β-farnesene among reaction products (GC-FID) ([2]; FPP Mn, replicate 2): 0.9
epi-β-santalene among reaction products (GC-FID) ([2]; FPP Mn, replicate 2): 0.8
α-E-bergamotene among reaction products (GC-FID) ([2]; FPP Mn, replicate 2): 73.8
α-santalene among reaction products (GC-FID) ([2]; FPP Mn, replicate 2): 10.5
β-santalene among reaction products (GC-FID) ([2]; FPP Mn, replicate 2): 5.5
E-β-farnesene among reaction products (GC-FID) ([2]; FPP Mn, replicate 3): 8.6
Z-β-farnesene among reaction products (GC-FID) ([2]; FPP Mn, replicate 3): 0.9
epi-β-santalene among reaction products (GC-FID) ([2]; FPP Mn, replicate 3): 1.2
α-E-bergamotene among reaction products (GC-FID) ([2]; FPP Mn, replicate 3): 74.4
α-santalene among reaction products (GC-FID) ([2]; FPP Mn, replicate 3): 9.7
β-santalene among reaction products (GC-FID) ([2]; FPP Mn, replicate 3): 5.1
Kcat ([3]; FPP): 0.0277 s⁻¹
Vmax ([3]; assays using FPP): 0.54 µM/min

From patent US9260728B2, “Terpene synthases from Santalum” (UNIVERSITY OF BRITISH COLUMBIA, priority 2009, dated 2016)
